From the domain aggregation screens of Martell et al. (2025)

Assay: soluble fraction after stress (log2 fold change); higher = more stays soluble; pooled small domains, quantitative proteomics
Conditions: stress: 50 degC
Outline: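 The measure of aggregation propensity here is the base-two logarithm of the fold change in the soluble amount of each protein after stress. A higher value means more of that protein stays in solution. Stress was applied at 50°C to pooled libraries of small protein domains, read out by high-throughput quantitative proteomics.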

| Sequence | soluble fraction (log2) |
| --- | --- |
| HMAAGKGVTTGSVRLRKGSNTDSAIIATLKKDTELILYGKKDGWYSVKTSDGTEGFVSSKYVKVTEAY | 0.313 |
| HMNLRLKEVLDEKNMSLVTLSEKTGIEKGNLSAISNNKKNPTVETLSKIAKALQISLAELFESPP | 0.303 |
| HMSELDSYIGARLRMRRLMLGMSQEALGEKLSLTFQQIQKYEKGTNRVSASRLYELAQVLDVPVQFFFDGA | -2.93 |
| HMNLLGDNIRKLRLEKGLGLNEVARLANITGGYLSSIENNKRTNVGTEILESIAKAIGVSVSDFYL | -0.0298 |
| HMGGSLADAKRFLADLLADGPVPAKGVRADADGAGHTWPTIRRAQKALGIEATKTGMKGGWVWALPR | -0.034 |
| HMARGTRTRAKLLAAAEVVFARYGYTEASIERITEEAGVGQGTFYLYFASKLEIFEELVDDLNR | -2.87 |
| HMQSANQLIKLSRKRKGLTQQELADQAGVSLRTVQRIEKGTEEISGFSLKQISQILEIPLEQLIM | -0.146 |
| HMGQQPPVTEIYKNHDGNKDGLLEAGEVTGSRYARQFPRWDVNGDQKVSPQEVIAFRKRFGIAADGTLL | -0.0225 |
| HMKIVQHQLQLPVHVAGKFKGMFYKSDFVMSEDYDDDGNMILAVRLPLVDWNKFLKRTDNELSQYIKVTP | -0.858 |
| HMGSFGAMLKRNRKLAGLTQEQLAEKLDVSTVAVQNWESGKNQIRSEKLTKLSYLFNIPLETLIHEMLIS | -0.951 |
| HMNLWIDNTQVINDWTEGASERSGSIYLTAGVKPIKMQYFDSVLNAKAILRWQGPGINKSVVPSSALTPG | -0.855 |
| HMADPVTPQDLIRWSEALAGIARTGLGFTQSLYEQERFEEVLAVAADMRVAAGSSYNPDDLVHEWMKSVG | -0.292 |
| HMDDPDALITDSQLKAIHVLLGKLKIDDNLKHAYIADVLQLKDIPETLKTLTKHQGSTIIERLNLLIKDA | 0.0419 |
| HMVSPLEKSQSFGSFEISREFARTLGLTSARNWENWAASDSRPINIPYSPNVFYKNKGWIDWSDWLGTE | -0.286 |
| HMRITRREQQVLHLLAMGMTTREIAGHINLTERTVRNRISNLRDKLGAQTASQLLAKAVAQGLIEP | -2.02 |
| HMTFAEADAQYEVIKQQYLAGALDEEQFDEQLHRLMVLDDGGLWWAKSRENGSWHYYDPDREDWIAATP | -0.355 |
| HMFDSYDIYDEAGNTVNTVKGKLSWGHLLEIYDRFDNHIGTVQERVLTFLPKFLMYINGQEIGEIR | -0.0596 |
| HMDSMATVPDLVGKTEDEAKALANDAHLGVQMAGEEASDQEKGKISRQETAAGTQVAEYTTVKYWVSTGTQ | 0.124 |
| HMGNLIIFYDEGIGSGPLMKAVNDSGVSLVYEYKNLHGIAIRPSAKTNIQDAIAYFQKVNGVLSVEQ | -2.52 |
| HMEAPWQEIKRQVMDGLDMSREFTDEELRERIALAVRSYSKEKLLSLKVRESYEEQIFNSFR | -0.239 |
| HMPRDQQENIYLLEKGKRLYEEHLGDQRQIIGHRIMIFERILESQDHAQIRRAQSEFAEFLSHYDG | -0.229 |
| HMETTEELISKTVPISYADMAALTGILDGVKSARGDIQVDDRTSTIIIHDIQSSIDEMMRLIKILD | -0.999 |
| HMAEEPLRIWTDLQGRSIEASFIKFSGNNIVIKMKSGRDYEVARSLFSPGDQKYLSDLKKSTPE | -0.701 |
| HMIYKLIADRLKNRINSDEFEVGDALPSEKALAGELEVSVMTIRKALTLLESEKLIVKRHGSGSYVARKSN | -0.429 |
| HMASPTKQLVLEALRASGQPMSSMELSAQIGVSRATAQRYLSTLASAGEVKIQLRYGTTGRPEQEFLAIE | -0.868 |

| Sequence | soluble fraction (log2) |
| --- | --- |
| HMKIPPIMFVRAIMVAGRQSMAIMDIEGVGTGIIVRSGYSFSNGEGKVVRIGPDKVTVNWSGKHLDLAPG | -0.615 |
| HMDTGKLQSLVGSRGVAHTVLRPSGKVMIGDDVYPAVAETGFIPRGTAIVVRREEQGQLYVVEARK | 0.179 |
| HMTTAASIGRLVRDARKQRGLTQHELASLLSTSQSAIHRIESGNQNLSLEMINRIAQALESPLIVPGG | -0.163 |
| HMNNIYFSPVVEENNKGLRLDKFLAASFPEFSRSQLQRLILEGNVSNDDVVIADNSQKVRVGDSFQVIVPE | -0.0377 |
| HMNMEDIADKIGRLYDNLPDDLKLMIKYRDIDDMTYDEIARKANLPIGTVRSRLHRARDILLREI | -0.647 |
| HMENFDNIFDQRLMPSLFIIRNINQAIENNNNNKFLLNSTISMKDKHWIEIHPHHLKLIISGYQT | -0.238 |
| HMTEFDVIMKSFGSEKIKVIKEVRAITGLGLAEAKALVEGVPAKIKEQVSKDDAEALKKQLEAVGAEVEL | 0.0379 |
| HMVVPELNLAQQDVLRALRQRGRATADHLSVDTHRPVSEVMGILLGLEIAEVLYRVEGGWFVPKTAR | -0.653 |
| HMLTEKEEEVMQILWDNGPLFVREILEFYPDPKPHYNTVSTVIRVLEEKNFASHKAYGNTYQYFP | -0.0146 |
| HMNGQFIELKNTTGTIIEARVLSFQNGKVKLQRNDGLIFVASISIFDSESIEVIKQKVAEISESKKS | -0.224 |
| HMGSQSYVAIVNERFKESDIVELGGSVGSRTGDIITLHFRNSSPNELKNITGIVYLQVANKVTPKL | -0.612 |
| HMVTVSAVNITPKGHTTVGFTDRSVNPPSNYYLRVGESADGWTVKDADFDDEIATLEKDGVAITLKL | -0.0772 |
| HMATEVEVPDVVGRQMALATQLLEARKLRVNVAEIYDEKTPPGQVVSQSPEAGSSVKEERVVTIYVSR | -0.0321 |
| HMVRQKYKSNFITVGDKSLTIHDWAQRLNLSQYALRNRYKEFGKEWVEKAIKTILETGDNTHIYK | -0.847 |
| HMAQWGFNGSEAGDLSFQQGDVIEVVEKVKDDWWRGRVLGSTEIGLFPS | -0.225 |
| HMEQQSIYLENRERMTINQVIDVDAFDEETLWANLKEGAVEISGSGLHIEKLDLAEGVLIVSGIIRAFAYV | -0.647 |
| HMEAQFIDINDVRIGTYVYVDLGWIKHPFALNSFKITSRDQIDTLIKLGVKRIRWSPEKSDS | -1.3 |
| HMAPVLTATVNTTSGKLNMRAAASATSAKLTSIPRGATVTVLEKGTTWSRISYGGYTGYVMTQYLKFD | -0.167 |
| HMGIIYGKNPVLEAISSGTTINKIYAQTSNKEIDSVIKEALKRKIIVVNTDKQKLDKMIDGKNSQGIIASI | 0.317 |
| HMTVKKLIINEDNSGRRIDNYLLSIFNSVPRSKIYNIIRKGEVRVNSSRIKPSYRLEEGDQVRIPPNLDYT | -1.04 |
| HMHMSKKLADSIISLRRKHGFSQEQLAEKIGVTRQAISNWERGTATPDVETLNLIAKLFDMDLLAIINGE | 0.0766 |
| HMIHEQSLHKIRNFIGSLPESLRTAFTLREQDGLSYEEIGKITNTPIGTVRSRIYRARESILDHINQE | -0.874 |
| HMDSKKNLLGKNGLAFTTLRPAGTVLIDGQRHDVISNGDMIPKGATVRVIAIEGASITVEALPD | 0.155 |
| HMGIDSSVYVEARYELGHLYLKQKKYAAAYASFKEILDMYASTTPGVLPGAYNKLAEIGMKRIPKNKL | -2.74 |
| HMVEVTTDEITRPGAMVSGSVTFSDGVKAIWLIDEYGRPGLEPETPGYQPSESDLSEFEKHLRALLQ | 0.0647 |

| Sequence | soluble fraction (log2) |
| --- | --- |
| HMNNDIDRVFAELTVLSQKKGYLVFDDIEKGTEDLSVNEVDWLTNRLLTSGVEIFDDVPDTIK | -0.205 |
| HMDRKEEIIIVTLKLASQIGLSNVSMEQIAKQVGIKKPSLYNHFKSKDEIIDAMYEYLREKSKN | -0.869 |
| HMDDATIKVNIAAKFLNAGNNLFVDIDTTVLEGRVLLTGLVDTQEVRIDAVRLVWEVEGIREVINEIEIG | -4.89 |
| HMGDGMEVWVNGSPVNLTGKDSFIFVDIFDFIDFDLTASKGRLIVIKVNGEYAEYTRPLHNGDTIEIYWEE | -0.0714 |
| HMNKDWQDEVALQRYTMITPLLSEDLDNAKRIAMREKIAQDNLTTARSLYRYEKAYRENGFQGLRPTD | -0.146 |
| HMLLKIRPDLDGNEIMKLLNIAAGPNVGKAYEHLLELRLEHGPLGKERAEQELMNWWSARSQ | -1.09 |
| HMEARNDWAQQSRADAEFGGEKLDENLAVAKKAVEALASPELKTLLEQSGLGNHPEIIRLFYRAGRSLS | 0.132 |
| HMRDTDAEVTYKLNEPFKTMGSVSVEGKVLEFAGSKWFARAAEFASNTEVYPLAKNRVRLTFTFHGLTAP | 0.105 |
| HMIPSEQYNTALTEIGLSTRAHNSLRRAGIMTLGQLIEKTRDGLPPLPGFGDKSQVEVQDLLTGLGYPI | -0.203 |
| HMAKIKVFELKNQINSLIKNKIESKDIIDFIETNFGVKKSHSSALEENEANFIKNYFVHADKA | 0.195 |
| HMAKSMRHLIVPSRETSLWRDKLSTNGWLSKGYGIHNLDDYRGIPLNETAPKIIEGLEITELEPIS | 0.0863 |
| HMSDIHARIAAALAALTSPEKIHDLVVDDDGKVSFTFHLTREDPATLVRDARKAVQAVDGVRDVKVNVVDP | 0.172 |
| HMGGWEEGVYVVREGDTLSDIVHDAVKGTEIHPDFILNAIVRVNPSAFVRGNPSWMLAGKKIK | -0.0469 |
| HMTGLSFEEKDLLGNALKLLDETERRIVILHATSGLKHREIAKQLDIPLPTVLSKYTRAIKKLKKHME | -0.0942 |
| HMTEEELLERLDAVITEYKGKPGALIPVLQLAQGIFGYLPEVALKHIARQLDKPYSEVAGVVSFYSFFTT | 0.0488 |
| HMLDFLVSKYESELLADLLWSLGVVAVEEREATGDLVTLRTSLGDDHSFTRELVQEKFPDVIVSTAL | -1.47 |
| HMIMNKEIPVVADEFVEKEFGTGAVKLTPAHDPNDYESGERHGLEVVEVFDETGKMNDLVPEYEG | 0.551 |
| HMKDYTIDDIINSKVEHPLGGYQSRFKVGEYEVSVVGGRQTNHGDFIHTFELAIFDKNNNFLRNLTPVTID | -0.0394 |
| HMSKSENLYSAARELIPGGVNSPVRAFTGVGGTPLFIEKADGAYLYDVDGKAYIDYVGSWGPMVLGHNHP | 0.0101 |
| HMSQNTHTIPSREDILGIFRSVNAPLDPQSLGKTLQVHADSMDVLVRRLKAMERDGQLKSDASGVFSLAD | 0.119 |
| HMGVDMAPESIVGKKGVAATELRPAGKVEIHGQVYDAVSVGMFIKRGTGVKVVRYEAAQIYVEPE | 0.146 |
| HMEELNFYPNPAYKYINLDYVGLKEIYTVLGKKLLETYDTRINISNLNSGIYLIKFKNQALRFVK | -0.0334 |
| HMKRYLFEEVLAFLKHNDGKSFNYKQLGAAMEIDNESDRFALLETLEELKHQGFVIETDIGKYAAKE | -0.324 |
| HMSGEITVPNLIGVEAIQAKTLLIQAGFLIKEFYDLDSTQPAGVVIRQAPEAGTTQTIGKSVTITINKQ | -0.00644 |
| HMSDTMTVTNVKYAIYLRSTPSEASDANIIMEIPVGSKVTYLDTPNNTFYKISYGGTVGYSKQIYLTF | -0.836 |
